Key:
[1] = target: collagen fibril (porcine skin fiber, Nippi, Inc) (porcine); experiment: collagen fibril binding assay (spin column, SDS-PAGE of the unbound protein, Scatchard plot)
[2] = target: mini-collagen peptide H-Gly-Pro-Arg-Gly-(Pro-Hyp-Gly)12-NH2; experiment: SPR (Biacore), peptide immobilized, equilibrium fit, apparent KD
[3] = target: mini-collagen peptide H-Gly-Pro-Arg-Gly-(Pro-Hyp-Gly)12-NH2; experiment: SPR (Biacore); ratio of KD, ColHS2bS3 = 1.00

| Substance | Kd [1] [µM] | Kd [2] [µM] | Ratio [3] |
| --- | --- | --- | --- |
| collagen-binding domain s3a derived from Clostridium histolyticum class I collagenase ColG (from UniProt Q9X721 886-1003) | 100 |  |  |
| collagen-binding domain s3b derived from Clostridium histolyticum class I collagenase ColG (from UniProt Q9X721 1003-1118) |  | 45.4 | 0.102 |
| tandem collagen-binding domain (s3a-s3b) derived from Clostridium histolyticum class I collagenase ColG (from UniProt Q9X721 886-1118) |  | 44.6 | 0.1 |

Reference: US20190376053A1
